From PMC5391026

How the values were obtained:
[1] = target: HvPho1ΔL78 (HvPho1 lacking the L78 insertion) (barley (Hordeum vulgare)); experiment: SEC; single recombinant proteins on HiLoad Superdex S-200 26/60, 25 mM HEPES pH 7.5, 50 mM NaCl; apparent molecular weight by column calibration; peak fractions also analysed by DLS at 25°C
[2] = target: branching enzyme IIb (HvBeIIb) of barley endosperm extract (barley (endogenous in Hordeum vulgare 'QUENCH' endosperm)); experiment: SEC; total barley endosperm soluble protein on a 26/60 Superdex S-200 column; fractions analysed by immunoblot (anti-HvPho1, anti-HvBeIIb polyclonal antibodies) and native activity gels; extract with or without 1 mM ATP and 2.5 mM protein phosphatase inhibitor cocktail before SEC
[3] = target: recombinant barley plastidic starch phosphorylase (HvPho1) (barley (Hordeum vulgare)); experiment: SEC; single recombinant proteins on HiLoad Superdex S-200 26/60, 25 mM HEPES pH 7.5, 50 mM NaCl; apparent molecular weight by column calibration; peak fractions also analysed by DLS at 25°C
[4] = target: recombinant barley plastidic starch phosphorylase (HvPho1) (barley (Hordeum vulgare)); experiment: cross-linking; recombinant HvPho1 (1 mg/ml) in 20 mM HEPES pH 7.5 treated with glutaraldehyde (0.15% v/v) for 0.5 to 30 min at 37°C; SDS-PAGE

A stoichiometry N [1] of 2 was found for “HvPho1ΔL78 (HvPho1 lacking the L78 insertion) (enzyme)” in this work.
A stoichiometry N [2] of 2 was found for “branching enzyme IIb (HvBeIIb) of barley endosperm extract” in this work.
A stoichiometry N [3] of 2 and a stoichiometry N [4] of 2 were found for “recombinant barley plastidic starch phosphorylase (HvPho1) (enzyme)” in this work.
